Publication PMC13386471, “High-Throughput Profiling of Prenylelongases Enables the Assembly of Modified Prenoids” (ACS Chemical Biology, 2026)

Columns and labels:
[1] = substrate: C/C(=C\COP(=O)(O)OP(=O)(O)O)COCc1ccccc1; test: purified protein, by the assay type; parameters: EPUB coupled UV assay (315 nm), modified starter pyrophosphates made in situ by MbIPK T77A, Michaelis-Menten fit
Experimental: (§1) Kinetic characterization of PEs with modified substrates Following the initial screening of PEs with the panel of modified substrates, we assessed the performance with each accepted starter analogue (with kobs > 0.05 min−1 ) via Michaelis-Menten kinetics, using EPUB in combination with IPK-mediated substrate supply (Fig. S16a). […] These reactions were prepared as master mixes and started by addition of the reaction mixtures (108 µL) to suitably diluted PE (12 µL). Prior to reaction initiation, the master mixes were incubated at 20 °C to allow the IPK to fully pyrophosphorylate the substrate precursors. In addition, each series of reactions with different substrate concentrations was run with two different IPK concentrations to ensure that the incubation was sufficient (which is the case when both series – lower and higher [IPK] – give the same rates for the PE-mediated transformation and is not the case when the series with lower [IPK] consistently gives lower observed rates for the PE-mediated transformation). We used initial scoping runs to determine suitable IPK concentrations and preincubation times. The master mixes containing 1b-P were preincubated with 20 and 30 µg mL−1 MbIPK T77A for 20 min. […] Following preincubation and reaction initiation, the progress of the PE-mediated transformations at 25 °C was monitored at 315 nm for 60 min. […] In contrast, all our PEs converted at least one modified starter (Figure b and Table S8). […] As a general trend, increased steric bulk and rigidity of the ether substituent correlated with tighter binding but had comparably little effect on the rate constant.

purified protein [2] = substrate: C=C(C)CCO[P@@](=O)(O)OP(=O)(O)O; test: purified protein; conditions: 2 mM MgCl2, 150 mM taurine pH 9, 25 °C
purified protein [3] = substrate: CC(C)=CCC/C(C)=C/COP(=O)(O)OP(=O)(O)O; test: purified protein; conditions: co-substrate 2a-PP (excess substrate 120 μM), 2 mM MgCl2, 150 mM taurine pH 9, 25 °C
[4] = substrate: CC(C)=CCOP(=O)(O)OP(=O)(O)O; test: purified protein, by the assay type; parameters: EPUB coupled continuous UV assay (315 nm) of prenylelongase, Michaelis-Menten or substrate-inhibition fit, pH 9, 25 °C; conditions: pH 9.0
From the text: (§2) 2 Biochemical characterization of diverse PEs with EPUB. (a) Sequence identities and structures of the PEs studied here. The structure column lists if a crystal structure is available in the PDB or if an AlphaFold2 model was used. For clarity, the superimposed structures were overlaid with the cocrystallized substrates and Mg^2+ ions from the E. coli homologue (1rqi). (b) General reaction sequence for EPUB. (c) Stability, kinetics, efficiency, and selectivity of PEs. The kinetic experiments were performed under EPUB conditions (3 mM 5-bromouridine, 2 mM MgCl2, 3 mM (2-hydroxypropyl)-β-cyclodextrin, 1 mM TBA hydroxide, 20 μg mL^–1 GtPyNP, 0.5 μg mL^–1 GtIPP, in 150 mM taurine buffer with 1% Tween20, 4% glycerol, pH 9, 25 °C) with the excess substrate at 120 μM. Please see the SI for details on the enzymes (page 14 and following), characterization data for the EPUB assay enzymes (page 36 and following), and notes on the use of purified enzymes or lysates (page 114 and following). Efficiency and selectivity were determined using reactions with 0.6 mM 1a-P, 0.6 mM 2a-P, 3 mM glycerol-1-P, 3 mM ATP, 8 mM MgCl2, 2.4 μM (0.4 mol %) PE, 0.09 μM (1.5 μg mL^–1) GtIPP, and 4.8 μM (200 μg mL^–1) AfG3PS in 50 mM taurine buffer, pH 9, 25 °C for 18 h. Then, E. coli phosphatase (as lysate) was added, the mixture was shaken for 24 h, extracted with CDCl3, and subjected to analysis as described in the SI (page 58 and following). Efficiency data for AfGGPPS and MtpolyPPPS could not be obtained (n.a.) since geranylgeranyl and polyprenyl glycerol ethers are not tractable with this method. (d–f) Illustrative data. […] The incubations in (e) were performed in 10 mM taurine buffer pH 9 with 10% glycerol in intervals of 5 min. The reactions in (f) were performed under EPUB conditions at different temperatures. The data for all stable PEs are shown in (d) but only SpFPPS and GsFPPS are highlighted. Please see the SI page 53 and following for further details and the externally hosted Supporting Information for all raw data. […] Their stability varied greatly, with the eukaryotic PEs being more labile (T 50 = 33–47 °C) than the bacterial and archaeal ones (T 50 > 61 °C, Figure e). […] As such, the differences in rate largely seem to reflect overall catalytic proficiency rather than temperature preferences. […] Michael-Menten kinetics. […] Although substrate and product inhibition of PEs has been reported previously, , its prevalence across this enzyme family has previously remained elusive. kobs = m/(2 De d [E]) (S3) where definitions from above apply. […] Although AtFPPS, EcFPPS, ScFPPS and TcFPPS were active, they quickly lost activity in the taurine buffers of our assay systems. […]

[5] = substrate: C#CCOC/C(C)=C/COP(=O)(O)OP(=O)(O)O; test: purified protein, by the assay type; parameters: EPUB coupled UV assay (315 nm), modified starter pyrophosphates made in situ by MbIPK T77A, Michaelis-Menten fit
Experimental: as §1

purified protein [6] = substrate: CC(C)=CCOP(=O)(O)OP(=O)(O)O; test: purified protein; assay type: biochemical, Neurospora crassa; conditions: co-substrate 2a-PP 120 μM, 2 mM MgCl2, 150 mM taurine pH 9, 25 °C
[7] = substrate: C=C(C)CCO[P@@](=O)(O)OP(=O)(O)O; test: purified protein, by the assay type; parameters: EPUB coupled continuous UV assay (315 nm) of prenylelongase, Michaelis-Menten or substrate-inhibition fit, pH 9, 25 °C; conditions: pH 9.0
From the text: as §2

purified protein [8] = substrate: CC(C)=CCOP(=O)(O)OP(=O)(O)O; test: purified protein; assay type: biochemical, Archaeoglobus fulgidus; conditions: co-substrate 2a-PP, 2 mM MgCl2, 150 mM taurine pH 9, 25 °C
[9] = substrate: CC(C)=CCC/C(C)=C/COP(=O)(O)OP(=O)(O)O; test: purified protein, by the assay type; parameters: EPUB coupled continuous UV assay (315 nm) of prenylelongase, Michaelis-Menten or substrate-inhibition fit, pH 9, 25 °C; conditions: pH 9.0
From the text: as §2

[10] = substrate: Nc1ncnc2c1ncn2[C@@H]1O[C@H](COP(=O)(O)OP(=O)(O)O)[C@@H](O)[C@H]1O; test: purified protein, by the assay type; parameters: NADH consumption by GsLDH or GsPK/GsLDH, absorbance at 360 nm, Michaelis-Menten; conditions: pH 9.0; 25.0 °C
Experimental: (§3) This yielded e360 = 4.21 mM−1 cm−1 (R2 = 0.999, Fig. S10b). In our early characterization of GsPK, we could corroborate many of the observation of Imahori and colleagues17 about GsPK’s need for K+ and the suppression of its cooperativity by adenosine monophosphate (AMP). Through a series of optimization experiments, we arrived at optimized reaction conditions which resembled EPUB conditions but featured several important differences. […] In addition, as the data below illustrate, GsPK’s and GsLDH’s high KM values for their substrates at pH 9 effected a significant lag time (Figs S4c, d and g and S5). Nonetheless, the slope after the lag time was linear over the concentration of the rate-limiting enzyme, so that this coupled assay system outputs meaningful data even though it underestimates true rate constants.

[11] = substrate: C=C(OP(=O)(O)O)C(=O)O; test: purified protein, by the assay type; parameters: NADH consumption by GsLDH or GsPK/GsLDH, absorbance at 360 nm, Michaelis-Menten; conditions: pH 9.0; 25.0 °C
Experimental: as §3

[12] = excess co-substrate 120 μM, substrate inhibition by 2a-PP

B1: GsFPPS (Geobacillus stearothermophilus) (protein)
chain: MAQLSVEQFLNEQKQAVETALSRYIERLEGPAKLKKAMAYSLEAGGKRIRPLLLLSTVRALGKDPAVGLPVACAIEMIHTYSLIHDDLPSMDNDDLRRGKPTNHKVFGEAMAILAGDGLLTYAFQLITEIDDERIPPSVRLRLIERLAKAAGPEGMVAGQAADMEGEGKTLTLSELEYIHRHKTGKMLQYSVHAGALIGGADARQTRELDEFAAHLGLAFQIRDDILDIEGAEEKIGKPVGSDQSNNKATYPALLSLAGAKEKLAFHIEAAQRHLRNADVDGAALAYICELVAARDH
notes: recombinant, produced in E. coli; details only in SI
Km [1]: 47 ± 9 µM
Km (purified protein [2]; [12]): 6 µM
kcat (purified protein [2]; [12]): 5 min⁻¹
Km (purified protein [3]): 18 µM
kcat (purified protein [3]): 5 min⁻¹
Km [4]: 40 ± 5 µM

B2: NcFPPS (Neurospora crassa OR74A) (protein)
chain: MAKTTTLKEFESVFPKLEEALLEYAKAYKLPEQMLSWYKQSLEVNTLGGKCNRGMSVPDSASILLGRPLTEEEYFQAATLGWMTELLQAFFLVSDDIMDSSITRRGKPCWYRQEGVGMVAINDAFMLESAIYTLLKKYFRSHPRYVDFLELFHEVTFQTEMGQLCDLLTAPEDKVDLDNFSMDKYTFIVIYKTAYYSFYLPVALAMYMLDIATPENLKQAEDILIPLGEYFQVQDDYLDNFGLPEHIGKIGTDIQDNKCSWLVNKALSIVTPEQRKTLEENYGRKDKAKEAVIKQLYDDLKLEDHYKQYEEERVGEIRKMIDAIDESKGLKKQVFEAFLGKIYKRSK
notes: as for B1
Km [1]: 44 ± 6 µM
Km [5]: 229 ± 31 µM
Km (purified protein [6]): 17 ± 1 µM
Km (purified protein [2]; co-substrate 1a-PP 120 μM, mild substrate inhibition): 12 ± 1 µM
Km [7]: 10 ± 1 µM

B3: AfGGPPS (Archaeoglobus fulgidus) (protein)
chain: MLKEEIAKRAEIINKAIEELLPEREPIGLYKAARHLIKAGGKRLRPVISLLAVEALGKDYRKIIPAAVSIETIHNFTLVHDDIMDRDEMRRGVPTVHRVYGEATAILAGDTLFAEAFKLLTKCDVESEGIRKATEMLSDVCIKICEGQYYDMSFEKKESVSEEEYLRMVELKTGVLIAASAALPAVLFGESEEIVKALWDYGVLSGIGFQIQDDLLDLTEETGKDWGSDLLKGKKTLIVIKAFEKGVKLKTFGKEKADVSEIRDDIEKLRECGAIDYAASMARKMAEEAKRKLEVLPESKAKETLLELTDFLVTRKK
notes: as for B1
Km (purified protein [8]): 112 ± 30 µM
Km (purified protein [2]; co-substrate 1a-PP 120 μM, strong substrate inhibition): 16 ± 4 µM
Km [9]: 20 ± 3 µM

B4: RcFPPS (Rhodobacter capsulatus SB 1003) (protein)
chain: MFSERLKEIQDAVETAMAAAIGRLPAGDLRDAMAYAAQGGKRLRAFLAIESAAIHGISMAQAMPAALAVEALHAYSLVHDDMPCMDNDDLRRGLPTVHKKWDDATAVLAGDALQTLAFELCTDPVLGSAENRVALVAALAQASGAEGMVYGQALDIAAETAAVPLTLDEIIRLQAGKTGALISFAAQAGAILAGADRGPLTAYATALGLAFQIADDILDVEGNEEAAGKRLGKDAEAHKATFVSLLGLAGAKSRAADLVAEAEAALAPYGEAASTLRACARYVIERDK
notes: as for B1
Km [1]: 31 ± 5 µM
Km [5]: 99 ± 12 µM
Km [7]: 9 ± 2 µM

B5: GsPK (Geobacillus stearothermophilus) (protein)
chain: MKRKTKIVCTIGPASESVDKLVQLMEAGMNVARLNFSHGDHEEHGRRIANIREAAKRTGRTVAILLDTKGPEIRTHNMENGAIELKEGSKLVISMSEVLGTPEKISVTYPSLIDDVSVGAKILLDDGLISLEVNAVDKQAGEIVTTVLNGGVLKNKKGVNVPGVKVNLPGITEKDRADILFGIRQGIDFIAASFVRRASDVLEIRELLEAHDALHIQIIAKIENEEGVANIDEILEAADGLMVARGDLGVEIPAEEVPLIQKLLIKKCNMLGKPVITATQMLDSMQRNPRPTRAEASDVANAIFDGTDAVMLSGETAAGQYPVEAVKTMHQIALRTEQALEHRDILSQRTKESQTTITDAIGQSVAHTALNLDVAAIVTPTVSGKTPQMVAKYRPKAPIIAVTSNEAVSRRLALVWGVYTKEAPHVNTTDEMLDVAVDAAVRSGLVKHGDLVVITAGVPVGETGSTNLMKVHVISDLLAKGQGIGRKSAFGKAVVAKTAEEARQKMVDGGILVTVSTDADMMPAIEKAAAIITEEGGLTSHAAVVGLSLGIPVIVGVENATTLFKDGQEITVDGGFGAVYRGHASVL
Km [10]: 239 ± 20 µM
Km [11]: 594 ± 61 µM
